B1: TRIM9 (parent)
chain: CVQCKMPVCYQCLEEGKHSSHEVK

Variants of: B1
Experiment: protein stability index of a GFP-peptide fusion (GPS, HEK-293T) (PSI 1-6); higher = more stable
Details: c terminus: a fixed tail appended
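Also: lentivirally expressed fusions sorted by FACS into six bins by GFP to DsRed ratio, PSI derived from sequencing read proportions per bin multiplied by bin number.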

Variant	protein stability index
CVQCKMPVCYQCMEEGKHSSHEVK [L13M]	4.21
CVQCKMPVCYQCPEEGKHSSHEVK [L13P]	4.47
CVQCKMPVCYQCFEEGKHSSHEVK [L13F]	3.86
CVQCKMPVCYQCSEEGKHSSHEVK [L13S]	4.7
CVQCKMPVCYQCIEEGKHSSHEVK [L13I]	4.08
CVQCKMPVCYQCWEEGKHSSHEVK [L13W]	4.7
CVQCKMPVCYQCCEEGKHSSHEVK [L13C]	4.88
CVQCKMPVCYQCDEEGKHSSHEVK [L13D]	4.04
CVQCKMPVCYQCEEEGKHSSHEVK [L13E]	4.16
CVQCKMPVCYQCGEEGKHSSHEVK [L13G]	4.81
CVQCKMPVCYQCVEEGKHSSHEVK [L13V]	4.45
CVQCKMPVCYQCKEEGKHSSHEVK [L13K]	4.53
CVQCKMPVCYQCTEEGKHSSHEVK [L13T]	3.08
CVQCKMPVCYQCYEEGKHSSHEVK [L13Y]	3.48
CVQCKMPVCYQCAEEGKHSSHEVK [L13A]	4.22
CVQCKMPVCYQCQEEGKHSSHEVK [L13Q]	4.48
CVQCKMPVCYQCHEEGKHSSHEVK [L13H]	4.55
CVQCKMPVCYQCREEGKHSSHEVK [L13R]	4.13
CVQCKMPVCYQCNEEGKHSSHEVK [L13N]	3.46
CVQCKMPVCYICLEEGKHSSHEVK [Q11I]	3.4
CVQCKMPVCYPCLEEGKHSSHEVK [Q11P]	3.76
CVQCKMPVCYCCLEEGKHSSHEVK [Q11C]	4.83
CVQCKMPVCYVCLEEGKHSSHEVK [Q11V]	3.27
CVQCKMPVCYYCLEEGKHSSHEVK [Q11Y]	3.52

Variant	protein stability index
CVQCKMPVCYNCLEEGKHSSHEVK [Q11N]	4.27
CVQCKMPVCYRCLEEGKHSSHEVK [Q11R]	3.77
CVQCKMPVCYMCLEEGKHSSHEVK [Q11M]	3.17
CVQCKMPVCYSCLEEGKHSSHEVK [Q11S]	3.67
CVQCKMPVCYWCLEEGKHSSHEVK [Q11W]	2.93
CVQCKMPVCYFCLEEGKHSSHEVK [Q11F]	3.65
CVQCKMPVCYHCLEEGKHSSHEVK [Q11H]	3.2
CVQCKMPVCYECLEEGKHSSHEVK [Q11E]	3.57
CVQCKMPVCYLCLEEGKHSSHEVK [Q11L]	2
CVQCKMPVCYKCLEEGKHSSHEVK [Q11K]	3.95
CVQCKMPVCYDCLEEGKHSSHEVK [Q11D]	4.05
CVQCKMPVCYTCLEEGKHSSHEVK [Q11T]	4.12
CVQCKMPVCYGCLEEGKHSSHEVK [Q11G]	4.92
CVQCKMPVCYQKLEEGKHSSHEVK [C12K]	4.8
CVQCKMPVCYQWLEEGKHSSHEVK [C12W]	2.92
CVQCKMPVCYQALEEGKHSSHEVK [C12A]	3.35
CVQCKMPVCYQVLEEGKHSSHEVK [C12V]	3.45
CVQCKMPVCYQQLEEGKHSSHEVK [C12Q]	4.03
CVQCKMPVCYQELEEGKHSSHEVK [C12E]	4.25
CVQCKMPVCYQFLEEGKHSSHEVK [C12F]	3.19
CVQCKMPVCYQLLEEGKHSSHEVK [C12L]	3.48
CVQCKMPVCYQMLEEGKHSSHEVK [C12M]	3.7
CVQCKMPVCYQDLEEGKHSSHEVK [C12D]	4.2
CVQCKMPVCYQILEEGKHSSHEVK [C12I]	2.28

Variant	protein stability index
CVQCKMPVCYQYLEEGKHSSHEVK [C12Y]	3.58
CVQCKMPVCYQSLEEGKHSSHEVK [C12S]	4.48
CVQCKMPVCYQPLEEGKHSSHEVK [C12P]	3
CVQCKMPVCYQHLEEGKHSSHEVK [C12H]	4.34
CVQCKMPVCYQTLEEGKHSSHEVK [C12T]	3.42
CVQCKMPVCYQNLEEGKHSSHEVK [C12N]	3.67
CVQCKMPVCYQGLEEGKHSSHEVK [C12G]	3.81
CVQCKMPVCYQCLETGKHSSHEVK [E15T]	3.69
CVQCKMPVCYQCLEYGKHSSHEVK [E15Y]	3.36
CVQCKMPVCYQCLEMGKHSSHEVK [E15M]	3.75
CVQCKMPVCYQCLERGKHSSHEVK [E15R]	3.47
CVQCKMPVCYQCLEPGKHSSHEVK [E15P]	3.88
CVQCKMPVCYQCLEIGKHSSHEVK [E15I]	3.82
CVQCKMPVCYQCLELGKHSSHEVK [E15L]	3.65
CVQCKMPVCYQCLEVGKHSSHEVK [E15V]	3.47
CVQCKMPVCYQCLEFGKHSSHEVK [E15F]	2.82
CVQCKMPVCYQCLEDGKHSSHEVK [E15D]	4.07
CVQCKMPVCYQCLEAGKHSSHEVK [E15A]	4.08
CVQCKMPVCYQCLEHGKHSSHEVK [E15H]	3.36
CVQCKMPVCYQCLEKGKHSSHEVK [E15K]	3.67
CVQCKMPVCYQCLEGGKHSSHEVK [E15G]	4.15
CVQCKMPVCYQCLEWGKHSSHEVK [E15W]	2.72
CVQCKMPVCYQCLESGKHSSHEVK [E15S]	3.81
CVQCKMPVCYQCLECGKHSSHEVK [E15C]	4.14

Variant	protein stability index
CVQCKMPVCYQCLEQGKHSSHEVK [E15Q]	3.76
CVQCKMPVCYQCLENGKHSSHEVK [E15N]	3.82
CVQCKMPVCYQCLAEGKHSSHEVK [E14A]	3.12
CVQCKMPVCYQCLFEGKHSSHEVK [E14F]	2.97
CVQCKMPVCYQCLMEGKHSSHEVK [E14M]	3.17
CVQCKMPVCYQCLDEGKHSSHEVK [E14D]	2.99
CVQCKMPVCYQCLVEGKHSSHEVK [E14V]	3.34
CVQCKMPVCYQCLHEGKHSSHEVK [E14H]	3.34
CVQCKMPVCYQCLCEGKHSSHEVK [E14C]	4.34
CVQCKMPVCYQCLYEGKHSSHEVK [E14Y]	3.15
CVQCKMPVCYQCLIEGKHSSHEVK [E14I]	3.55
CVQCKMPVCYQCLQEGKHSSHEVK [E14Q]	4.17
CVQCKMPVCYQCLGEGKHSSHEVK [E14G]	4.14
CVQCKMPVCYQCLREGKHSSHEVK [E14R]	3.83
CVQCKMPVCYQCLNEGKHSSHEVK [E14N]	3.66
CVQCKMPVCYQCLPEGKHSSHEVK [E14P]	3.75
CVQCKMPVCYQCLKEGKHSSHEVK [E14K]	3.99
CVQCKMPVCYQCLTEGKHSSHEVK [E14T]	3.53
CVQCKMPVCYQCLSEGKHSSHEVK [E14S]	3.68
CVQCKMPVCYQCLLEGKHSSHEVK [E14L]	2.93
CVQCKTPVCYQCLEEGKHSSHEVK [M6T]	3.96
CVQCKVPVCYQCLEEGKHSSHEVK [M6V]	4.13
CVQCKYPVCYQCLEEGKHSSHEVK [M6Y]	3.79
CVQCKMPVCYQCLEEHKHSSHEVK [G16H]	3.36

Variant	protein stability index
CVQCKMPVCYQCLEECKHSSHEVK [G16C]	4.33
CVQCKMPVCYQCLEEIKHSSHEVK [G16I]	3.25
CVQCKMPVCYQCLEERKHSSHEVK [G16R]	3.27
CVQCKMPVCYQCLEEFKHSSHEVK [G16F]	3.73
CVQCKMPVCYQCLEEYKHSSHEVK [G16Y]	3.41
CVQCKMPVCYQCLEEDKHSSHEVK [G16D]	4.58
CVQCKMPVCYQCLEEMKHSSHEVK [G16M]	3.71
CVQCKMPVCYQCLEEWKHSSHEVK [G16W]	2.8
CVQCKMPVCYQCLEESKHSSHEVK [G16S]	3.7
CVQCKMPVCYQCLEEAKHSSHEVK [G16A]	4.02
CVQCKMPVCYQCLEENKHSSHEVK [G16N]	4.09
CVQCKMPVCYQCLEEQKHSSHEVK [G16Q]	2.64
CVQCKMPVCYQCLEEKKHSSHEVK [G16K]	3.57
CVQCKMPVCYQCLEELKHSSHEVK [G16L]	3.49
CVQCKMPVCYQCLEEVKHSSHEVK [G16V]	3.62
CVQCKMPVCYQCLEEPKHSSHEVK [G16P]	3.9
CVQCKMPVCYQCLEETKHSSHEVK [G16T]	3.83
CVQCKMPVCYQCLEEEKHSSHEVK [G16E]	3.94
CVQCKMPNCYQCLEEGKHSSHEVK [V8N]	4.49
CVQCKMPLCYQCLEEGKHSSHEVK [V8L]	3.65
CVQCKMPRCYQCLEEGKHSSHEVK [V8R]	3.75
CVQCKMPYCYQCLEEGKHSSHEVK [V8Y]	3.01
CVQCKMPKCYQCLEEGKHSSHEVK [V8K]	5.1
CVQCKMPSCYQCLEEGKHSSHEVK [V8S]	4.53

Variant	protein stability index
CVQCKMPQCYQCLEEGKHSSHEVK [V8Q]	4.33
CVQCKMPMCYQCLEEGKHSSHEVK [V8M]	4.13
CVQCKMPECYQCLEEGKHSSHEVK [V8E]	4.41
CVQCKMPWCYQCLEEGKHSSHEVK [V8W]	3.76
CVQCKMPICYQCLEEGKHSSHEVK [V8I]	3.66
CVQCKMPFCYQCLEEGKHSSHEVK [V8F]	4.03
CVQCKMPACYQCLEEGKHSSHEVK [V8A]	4.13
CVQCKMPCCYQCLEEGKHSSHEVK [V8C]	3.95
CVQCKMPDCYQCLEEGKHSSHEVK [V8D]	4.21
CVQCKMPTCYQCLEEGKHSSHEVK [V8T]	3.79
CVQCKMPPCYQCLEEGKHSSHEVK [V8P]	3.61
CVQCKMPHCYQCLEEGKHSSHEVK [V8H]	4.89
CVQCKMPGCYQCLEEGKHSSHEVK [V8G]	4.82
CVQCKMCVCYQCLEEGKHSSHEVK [P7C]	4.06
CVQCKMMVCYQCLEEGKHSSHEVK [P7M]	4.33
CVQCKMNVCYQCLEEGKHSSHEVK [P7N]	4.14
CVQCKMHVCYQCLEEGKHSSHEVK [P7H]	3.23
CVQCKMFVCYQCLEEGKHSSHEVK [P7F]	2.48
CVQCKMEVCYQCLEEGKHSSHEVK [P7E]	4.35
CVQCKMQVCYQCLEEGKHSSHEVK [P7Q]	3.83
CVQCKMTVCYQCLEEGKHSSHEVK [P7T]	3.08
CVQCKMLVCYQCLEEGKHSSHEVK [P7L]	3.28
CVQCKMGVCYQCLEEGKHSSHEVK [P7G]	4.59
CVQCKMRVCYQCLEEGKHSSHEVK [P7R]	3.51

Variant	protein stability index
CVQCKMIVCYQCLEEGKHSSHEVK [P7I]	3.69
CVQCKMWVCYQCLEEGKHSSHEVK [P7W]	3.18
CVQCKMVVCYQCLEEGKHSSHEVK [P7V]	3.52
CVQCKMKVCYQCLEEGKHSSHEVK [P7K]	3.84
CVQCKMSVCYQCLEEGKHSSHEVK [P7S]	3.65
CVQCKMAVCYQCLEEGKHSSHEVK [P7A]	4.02
CVQCKMDVCYQCLEEGKHSSHEVK [P7D]	3.11
CVQCKMPVCYQCLEEGCHSSHEVK [K17C]	3.47
CVQCKMPVCYQCLEEGAHSSHEVK [K17A]	4.14
CVQCKMPVCWQCLEEGKHSSHEVK [Y10W]	2.51
CVQCKMPVCSQCLEEGKHSSHEVK [Y10S]	3.97
CVQCKMPVCNQCLEEGKHSSHEVK [Y10N]	4.27
CVQCKMPVCLQCLEEGKHSSHEVK [Y10L]	4.61
CVQCKMPVCTQCLEEGKHSSHEVK [Y10T]	3.52
CVQCKMPVCIQCLEEGKHSSHEVK [Y10I]	3.71
CVQCKMPVCKQCLEEGKHSSHEVK [Y10K]	4.15
CVQCKMPVCQQCLEEGKHSSHEVK [Y10Q]	4.16
CVQCKMPVCAQCLEEGKHSSHEVK [Y10A]	4.26
CVQCKMPVCMQCLEEGKHSSHEVK [Y10M]	4.08
CVQCKMPVCCQCLEEGKHSSHEVK [Y10C]	3.58
CVQCKMPVCDQCLEEGKHSSHEVK [Y10D]	4.83
CVQCKMPVCRQCLEEGKHSSHEVK [Y10R]	4.27
CVQCKMPVCVQCLEEGKHSSHEVK [Y10V]	3.74
CVQCKMPVCFQCLEEGKHSSHEVK [Y10F]	4

Variant	protein stability index
CVQCKMPVCHQCLEEGKHSSHEVK [Y10H]	4
CVQCKMPVCPQCLEEGKHSSHEVK [Y10P]	3.63
CVQCKMPVCEQCLEEGKHSSHEVK [Y10E]	4.32
CVQCKMPVQYQCLEEGKHSSHEVK [C9Q]	4.09
CVQCKMPVRYQCLEEGKHSSHEVK [C9R]	3.31
CVQCKMPVDYQCLEEGKHSSHEVK [C9D]	4.45
CVQCKMPVLYQCLEEGKHSSHEVK [C9L]	3.28
CVQCKMPVGYQCLEEGKHSSHEVK [C9G]	4.47
CVQCKMPVSYQCLEEGKHSSHEVK [C9S]	4.24
CVQCKMPVVYQCLEEGKHSSHEVK [C9V]	4.07
CVQCKMPVIYQCLEEGKHSSHEVK [C9I]	3.18
CVQCKMPVMYQCLEEGKHSSHEVK [C9M]	3.64
CVQCKMPVWYQCLEEGKHSSHEVK [C9W]	2.96
CVQCKMPVHYQCLEEGKHSSHEVK [C9H]	3.5
CVQCKMPVNYQCLEEGKHSSHEVK [C9N]	3.87
CVQCKMPVFYQCLEEGKHSSHEVK [C9F]	2.59
CVQCKMPVPYQCLEEGKHSSHEVK [C9P]	3.02
CVQCKMPVYYQCLEEGKHSSHEVK [C9Y]	2.8
CVQCKMPVAYQCLEEGKHSSHEVK [C9A]	4.19
CVQCKMPVTYQCLEEGKHSSHEVK [C9T]	4.41

— the supplement of paper PMC10567573
